From US20080175935A1, “Method to Treat Skin Conditions with Narcissus Tazetta Bulb Extract” (NuSkin International, Inc., priority 2004, published 2008)

Test system: arNOX
Assay: arNOX assay: ferricytochrome c reduction (superoxide production) in sera
Assay type: biochemical, human
Conditions: for Rate of reduction of ferricytochrome c, +Proteinase K: pooled serum
Text: Reduction of ferric cytochrome c by superoxide was employed as a standard measure of superoxide formation (Mayo, L. A. and Cumutte, J. (1990) Meth. Enzyme. 186, 567-575. 7. Butler, J, Koppenol, W. H. and Margollash, E. (1982) J. Biol. Chem. 257, 10747).
Assays of ferric cytochrome c reduction in sera compared 53 samples from young (20 to 40 y) and 65 samples from aged (80 to 100) individuals. […]
Measurement of arNOX activity based on ferricytochrome c reduction as a measure of superoxide production were taken. The rate of reduction of ferricytochrome c was determined from the increase in absorbance at 550 nm with 540 nm as reference. This is a widely accepted method when coupled to superoxide dismutase inhibition for the measurement of superoxide generation. The assay consists of 150 μl (2 mg/ml) of oxidized ferricytochrome c solution and 150 μl serum or 40 μl buffy coats in PBSG buffer (8.06 g NaCl, 0.2 g KCl, 0.18 g Na2HPO4, 0.26 g KH2PO4, 0.13 g CaCl2, 0.1 g MgCl2, 1.35 g glucose dissolved in 1000 ml deionized water, adjusted to pH 7.4, filtered and stored at 4° C.). Rates were determined using a SLM Aminco DW-2000 spectrophotometer (Milton Roy, Rochester, N.Y., USA) in the dual wave length mode of operation with continuous measurements over 1 min every 1.5 min. After 45 min, test compound was added and the reaction was continued for 45 min. A millimolar extinction coefficient of 19.1 cm^−1 was used for reduced ferricytochrome c. (D. M. Morré, F. Guo and D. J. Morré, 2003, Mol. Cell. Biochem. 254: […]).

B1: Proteinase K: protease used to digest sera (protein, UniProt P06873 106-384, looked up)
Proteinase K: AAQTNAPWGLARISSTSPGTSTYYYDESAGQGSCVYVIDTGIEASHPEFEGRAQMVKTYYYSSRDGNGHGTHCAGTVGSRTYGVAKKTQLFGVKVLDDNGSGQYSTIIAGMDFVASDKNNRNCPKGVVASLSLGGGYSSSVNSAAARLQSSGVMVAVAAGNNNADARNYSPASEPSVCTVGASDRYDRRSSFSNYGSVLDIFGPGTSILSTWIGGSTRSISGTSMATPHVAGLAAYLMTLGKTTAASACRYIADTANKGDLSNIPFGTVNLLAYNNYQA
Rate of reduction of ferricytochrome c, +Proteinase K (35-45 males): 0.27 ± 0.16 nmoles min^−1 mi serum^−1 | Rate of reduction of ferricytochrome c, +Proteinase K (75-85 females): 1.0 ± 0.18 nmoles min^−1 mi serum^−1 | Rate of reduction of ferricytochrome c, +Proteinase K (75-85 males): 0.72 ± 0.14 nmoles min^−1 mi serum^−1 | Rate of reduction of ferricytochrome c, +Proteinase K (<35 y females): 0.26 ± 0.17 nmoles min^−1 mi serum^−1 | Rate of reduction of ferricytochrome c, +Proteinase K (>90 females): 0.94 ± 0.24 nmoles min^−1 mi serum^−1 | change in the rate of arNOX following proteinase K digestion (sera): no significant decrease | Superoxide production (reduction of ferricytochrome c), without superoxide dismutase (sera of aged (80-98 y) individuals, after proteinase K, n = 10): 0.6 ± 0.2 Nmoles/min/mi/sera
